Among the targets are PRC2 3m (EZH2-EED-SUZ12) (UniProt Q15910;O75530;Q15022 1-746;1-441;1-739); EZH2-EED (UniProt Q15910;O75530 1-746;1-441); LSD1 (UniProt O60341 1-852).
What all share (assay): EMSA
A general note: In EMSA bound probe runs differently from free probe, usually more slowly.

As a reminder, the Kd is the concentration at which binding is half-saturated. Low readings indicate a tighter complex, high ones a looser complex.

Sequence of EZH2-EED (Q15910 whole entry, chain 1 of 2): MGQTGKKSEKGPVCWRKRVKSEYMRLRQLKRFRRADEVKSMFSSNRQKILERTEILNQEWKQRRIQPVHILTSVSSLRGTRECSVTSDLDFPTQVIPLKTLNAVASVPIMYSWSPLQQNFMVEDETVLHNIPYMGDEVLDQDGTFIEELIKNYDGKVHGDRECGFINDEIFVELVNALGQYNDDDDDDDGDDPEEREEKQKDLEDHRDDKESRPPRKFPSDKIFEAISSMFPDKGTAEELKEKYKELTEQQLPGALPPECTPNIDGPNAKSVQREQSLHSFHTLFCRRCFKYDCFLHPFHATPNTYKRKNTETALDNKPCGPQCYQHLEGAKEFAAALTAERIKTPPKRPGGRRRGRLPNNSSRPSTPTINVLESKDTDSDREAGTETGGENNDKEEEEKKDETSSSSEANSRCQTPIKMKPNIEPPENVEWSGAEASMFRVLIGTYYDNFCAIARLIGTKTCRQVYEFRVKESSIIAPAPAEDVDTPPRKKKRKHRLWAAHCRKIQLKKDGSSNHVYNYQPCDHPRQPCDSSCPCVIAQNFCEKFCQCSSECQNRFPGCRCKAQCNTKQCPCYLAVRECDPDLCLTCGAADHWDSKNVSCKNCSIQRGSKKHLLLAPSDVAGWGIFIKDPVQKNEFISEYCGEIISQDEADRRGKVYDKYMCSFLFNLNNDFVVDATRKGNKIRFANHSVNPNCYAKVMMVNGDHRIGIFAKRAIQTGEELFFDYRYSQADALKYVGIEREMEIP
Sequence of EZH2-EED (O75530 whole entry, chain 2 of 2): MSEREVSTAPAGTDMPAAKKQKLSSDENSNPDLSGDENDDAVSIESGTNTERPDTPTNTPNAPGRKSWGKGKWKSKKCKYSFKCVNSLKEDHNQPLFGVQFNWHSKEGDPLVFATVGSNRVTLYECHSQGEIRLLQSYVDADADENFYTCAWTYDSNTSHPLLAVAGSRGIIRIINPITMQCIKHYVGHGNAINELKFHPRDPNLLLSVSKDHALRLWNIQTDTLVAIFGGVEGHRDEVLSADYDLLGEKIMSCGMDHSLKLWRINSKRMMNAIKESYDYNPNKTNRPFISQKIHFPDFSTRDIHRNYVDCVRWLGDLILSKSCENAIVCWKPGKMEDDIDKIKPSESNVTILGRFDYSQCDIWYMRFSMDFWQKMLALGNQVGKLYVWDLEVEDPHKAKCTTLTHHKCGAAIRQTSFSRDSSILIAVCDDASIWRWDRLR
Sequence of PRC2 3m (EZH2-EED-SUZ12) (Q15910 whole entry, chain 1 of 3): as the sequence (Q15910 whole entry, chain 1 of 2) above
Sequence of PRC2 3m (EZH2-EED-SUZ12) (O75530 whole entry, chain 2 of 3): as the sequence (O75530 whole entry, chain 2 of 2) above
Sequence of PRC2 3m (EZH2-EED-SUZ12) (Q15022 whole entry, chain 3 of 3): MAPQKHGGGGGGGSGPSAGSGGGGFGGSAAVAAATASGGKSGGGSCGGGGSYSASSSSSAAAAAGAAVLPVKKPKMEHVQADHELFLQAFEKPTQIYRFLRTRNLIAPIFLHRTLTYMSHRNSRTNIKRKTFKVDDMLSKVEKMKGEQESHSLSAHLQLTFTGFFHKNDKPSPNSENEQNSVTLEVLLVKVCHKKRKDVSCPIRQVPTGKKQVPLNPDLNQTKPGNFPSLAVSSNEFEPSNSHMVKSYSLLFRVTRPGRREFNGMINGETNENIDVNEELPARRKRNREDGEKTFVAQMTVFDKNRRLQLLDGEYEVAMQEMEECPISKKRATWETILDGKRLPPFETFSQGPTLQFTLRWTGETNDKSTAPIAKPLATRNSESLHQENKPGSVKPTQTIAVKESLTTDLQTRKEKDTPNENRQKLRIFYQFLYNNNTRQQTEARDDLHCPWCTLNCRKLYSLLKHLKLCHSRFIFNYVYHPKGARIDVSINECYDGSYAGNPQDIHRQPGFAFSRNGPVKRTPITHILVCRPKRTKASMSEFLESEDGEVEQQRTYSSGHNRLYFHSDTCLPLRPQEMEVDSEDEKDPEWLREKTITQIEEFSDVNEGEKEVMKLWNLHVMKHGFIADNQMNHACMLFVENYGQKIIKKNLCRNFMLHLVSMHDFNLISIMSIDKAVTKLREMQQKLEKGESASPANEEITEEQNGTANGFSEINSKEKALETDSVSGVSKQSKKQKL

B1: HOTAIR 212-300 (minHOTAIR) (structured_RNA)
RNA: GGAACGGAUUUAGAAGCCUGCAGUAGGGGAGUGGGGAGUGGAGAGAGGGAGCCCAGAGUUACAGACGGCGGCGAGAGGAAGGAGGGGCGGAU
As for B1, the Kd in the series with PRC2 3m (EZH2-EED-SUZ12) turned out to be 111 ± 10 nM; with EZH2-EED, 135 ± 20 nM. In addition, the binding result with LSD1 was “no binding”.

B2: HOTAIR 101-300 (structured_RNA)
RNA: GACCAACACCCCUGCUCCUGGCGGCUCCCACCCGGGGCUUAGACCCUCAGGUCCCUAAUAUCCCGGAGGUGCUCUCAAUCAGAAAGGUCCUGCUCCGCUUCGCAGUGGAAUGGAACGGAUUUAGAAGCCUGCAGUAGGGGAGUGGGGAGUGGAGAGAGGGAGCCCAGAGUUACAGACGGCGGCGAGAGGAAGGAGGGGCGGAU
For the molecule B2, in the series with EZH2-EED, binding was put at a Kd of 119 ± 18 nM.

B3: HOTAIR 201-300 (structured_RNA)
RNA: GCAGUGGAAUGGAACGGAUUUAGAAGCCUGCAGUAGGGGAGUGGGGAGUGGAGAGAGGGAGCCCAGAGUUACAGACGGCGGCGAGAGGAAGGAGGGGCGGAU
B3 gave a Kd with EZH2-EED of 157 ± 12 nM.

B4: HOTAIR 1-100 (structured_RNA)
RNA: GACUCGCCUGUGCUCUGGAGCUUGAUCCGAAAGCUUCCACAGUGAGGACUGCUCCGUGGGGGUAAGAGAGCACCAGGCACUGAGGCCUGGGAGUUCCACA
Consider B4, for which the binding result in the series with EZH2-EED was “no binding”.

(Values after publication PMC3964825.)
